According to patent publication US20260152729A1, “NOVEL NKR VARIANTS FOR INCREASED PRODUCTION OF ISOBUTANOL” (Gevo, Inc., priority 2020, published 2026):

Columns and labels:
[1] = DHIV inhibition constant of Se1_NKR and Se2_NKR, as set in the model; format: biochemical; conditions: parameter set in the model; read-out: KiDHIV
Excerpt: (§1) Where nNKR is the number of copies of NKR integrated into the yeast genome, kcatis the first order rate constant, AL is the cytosolic concentration of acetolactate, Km is the Michaelis constant for acetolactate, DHIV is the concentration of DHIV, and KiDHIV is the inhibition constant for DHIV. […] This also assumes that all copies of NKR are expressed equally regardless of promotor or where it is integrated in the genome.

[2] = KARI enzyme Ki assay (product inhibition) with NADH, purified enzymes; format: biochemical, Slackia exigua; conditions: for IC50 / Ki: 1 mM 2-acetolactate, 0-40 mM R-DHIV; for catalytic efficiency using KM apparent = KM*(1+[product]/Ki), compared to Se1_NKR: 1 mM DHIV; for catalytic efficiency (KM apparent) versus increasing concentrations of DHIV (FIG. 14A-B): both conditions (33° C., pH 6.8 and 30° C., pH 7.0)
Description: (§2) In this example, three different KARI Gen6 variant enzymes (v1, v48, and v65) and parent enzyme Se1_NKR_gen 6 were screened for their activity with NADH as cofactor. The enzymes were expressed E. coli, and resulting transformants were cultivated in shake flask fermentations as described below and samples were taken after 44h, centrifuged at 4000×g for 10 mins at 4° C. and the cell pellets were stored at −80° C. until analysis. The pellets were lysed by bead beating and the lysates were analyzed by KARI activity assay as described below using NADH and NADPH as cofactors.
(§3) KARI Enzyme Assay: The assay and no substrate control reactions were performed in triplicate for each sample. For the KM assay, the reaction samples comprised 100 mM potassium phosphate, pH 6.8 or 7, 10 mM MgCl2, 1 mM DTT, 200 μM NADH, 0-10 mM 2-acetolactate, and 0.1 mg/mL of enzyme. For the Ki assay, the reaction samples comprised 100 mM potassium phosphate, pH 6.8 or 7, 10 mM MgCl2, 1 mM DTT, 200 μM NADH, 1 mM 2-acetolactate, 0-40 mM R-DHIV, and 0.1 mg/mL of enzyme. For the no substrate controls, the 2-acetolactate was substituted with water. 10 μL of each lysate were transferred into a 96 well half area assay plate. The reaction was started with 90 μL of reaction buffer to each well using a multichannel pipette. The samples were mixed immediately. The samples were read at 340 nm every 10 seconds for 5 minutes.
(§4) The purified enzymes encoded by Se1_NKR_Gen6 (Se1), Se1_NKR_v1 (v1), Se1_NKR_v48 (v48), and Se1_NKR_v65 (v65) under two conditions: 33° C. at pH 6.8 and 30° C. at pH 7 were characterized.
In order to determine the impact of all three parameters (kcat, KM, and Ki) to more closely determine the impact of the new variants in vivo, the catalytic efficiency for each enzyme using the KM apparent, which is equal to KM*(1+[product]/Ki), was calculated. […] At this DHIV concentration level, in vivo, at 33° C., pH 6.8, m48 would be 157%, Se1_NKR_v1 would be 139%, and Se1_NKR_v65 would be 118% improved compared to Se1_NKR. For example, in vivo, cells expressing Se1_NKR-v48, it would be expected that 16 fewer copies of the enzyme could potentially achieve 36% less protein while achieving 0.35 g/g yeast efficiency.

[3] = KARI enzyme KM assay with NADH, purified enzymes; format: biochemical, Slackia exigua; conditions: for Vmax: 0.1 mg/mL of enzyme
Description: as §2, §3, §4

Isobutanol Production = experiment: Simple shake flask fermentation, final relative isobutanol concentration; format: cell-based; conditions: enzyme on vector; for Isobutanol Concentration relative to Se1_NKR control (WT): final concentration
Excerpt: This improvement in isobutanol production is expected to increase with multiple copies of the Se1_NKR_v1 variant enzyme incorporated into the host cell genome.

[4] = Kinetic parameters of Se1_NKR and Se2_NKR for acetolactate, as set in the model; format: biochemical; conditions: parameter set in the model
Excerpt: as §1

[5] = system: isobutanol producing yeast strains; experiment: Genome scale metabolic modeling (iMM904) of isobutanol yield, batch simulation; design: species or system S. cerevisiae; conditions: cells with 16 fewer copies of the enzyme, 36% less protein
Description: The iMM904 metabolic reconstruction of S. cerevisiae metabolism served as the basis of the model. The model consists of a matrix of stoichiometric coefficients that represent metabolic and transport reactions encoded by 904 genes. Reactions were added as new columns to the matrix while new rows were added for additional metabolites. The native pathway for making isobutanol in the yeast mitochondria was turned off. A summary of these changes is found in Table 2 below. With these changes made, the maximum isobutanol yield from glucose in the model was approximately 0.38 g/g. If the model was altered to not produce glycerol, the yield increased to 0.41 g/g.
With more reactions than metabolites, metabolic networks have a near infinite number of solutions for any given condition. In flux balance analysis, the flux distribution is obtained by finding the solution that maximizes an objective function. […] Each flux is bounded by known limits of each reaction, though the bounds are mostly set by thermodynamic reversibility. […]
While all other reactions in the isobutanol pathway were set by reversibility only, the upper bound of flux through NKR (vnkr) was set by the kinetics of Se1 and Se2 NKR. Flux was calculated by the following equation: […]
The benefits of improving either NKR enzyme in a strain with an equal number of both was calculated to predict which enzyme was best to engineer. […]

[6] = generally, under the two conditions

Row | Molecule | IC50 ([2]; 30° C., pH 7) [µM] | Ki ([2]; 30° C., pH 7) [µM] | IC50 ([2]; 33° C., pH 6.8) [µM] | Ki ([2]; 33° C., pH 6.8) [µM] | Kcat ([3]; 30° C., pH 7) [s⁻¹] | Km ([3]; 30° C., pH 7) [µM] | Vmax ([3]; 30° C., pH 7) [mM/s] | Kcat ([3]; 33° C., pH 6.8) [s⁻¹] | Km ([3]; 33° C., pH 6.8) [µM] | Vmax ([3]; 33° C., pH 6.8) [mM/s] | Isobutanol Concentration relative to Se1_NKR control (WT) (Isobutanol Production) [%] | catalytic efficiency using KM apparent = KM*(1+[product]/Ki), compared to Se1_NKR ([2]; 33° C., pH 6.8) [%] | catalytic efficiency (KM apparent) versus increasing concentrations of DHIV (FIG. 14A-B) [2] | further results
1 | Se1_NKR: NADH-dependent ketol-acid reductoisomerase from Slackia exigua (S. exigua KARI, SEQ ID NO: 2); parent enzyme of the variants (protein, listed as Slackia exigua) MSVKTKEKEMAVTILYEQDVDPKVIQGLKVGIIGYGSQGHAHALNLMDSGVDVRVGLREGSSSWKTAEEAGLKVTDMDTAAEEADVIMVLVPDEIQPKVYQEHIAAHLKAGNTLAFAHGFNIHYGYIVPPEDVNVIMCAPKGPGHIVRRQFTEGSGVPDLACVQQDATGNAWDIVLSYCWGVGGARSGIIKATFAEETEEDLFGEQAVLCGGLVELVKAGFETLTEAGYPPELAYFECYHEMKMIVDLMYESGIHFMNYSISNTAEYGEYYAGPKVINEQSREAMKEILKRIQDGSFAQEFVDDCNNGHKRLLEQREAINTHPIETTGAQIRSMFSWIKKED | 1810 | 752 | 2600 | 768 | 442 | 711 | 1.30 | 382 | 419 | 1.12 | 100 |  |  | Ki [1]: 1100 µM; Kcat [4]: 2.6 s⁻¹; Km [4]: 430 µM
2 | V1: Se1_NKR Gen6 variant with mutations M77I, V91I, K290A, Q330N as printed in Table 5; e.g. SEQ ID NO: 90 (protein, listed as Slackia exigua, SITE 1..350 Se1_NKR_v1 protein) MSVKTKEKEMAVTILYEQDVDPKVIQGLKVGIIGYGSQGHAHALNLMDSGVDVRVGLREGDSDWKTAEEAGLKVTDIDTAAEEADVIMVLIPDEVQPKVYQEHIAAHLKAGNTLAFAHGFNIHYGYIVPPEDVNVIMCAPKGPGHIVRRQFTEGSGVPDLACVQQDATGNAWDIVLSYCWGVGGARSGIIKATFAEETEEDLFGEQAVLCGGLVELVKAGFETLTEAGYPPELAYFECYHEMKMIVDLMYESGIHFMNYSISNTAEYGEYYAGPKVINEQSREAMKEILARIQDGSFAQEFVDDCNNGHKRLLEQREAINTHPIETTGARIRSMFSWIKKEDLEHHHHHH | 2300 | 832 | 2880 | 834 | 555 | 566 | 1.63 | 491 | 407 | 1.45 | 105 | 139 | decreasing catalytic efficiencies | KM for acetolactate, comparison of the variants [3, 6]: best (lowest); isobutanol concentration compared with the WT enzyme, in words (Isobutanol Production): significantly more isobutanol than the WT enzyme
3 | V48: Se1_NKR Gen6 variant with mutations G31A, M77I, Q330N as printed in Table 5; e.g. SEQ ID NO: 92 (protein, listed as Slackia exigua, SITE 1..350 Se1_NKR_v48 protein) MSVKTKEKEMAVTILYEQDVDPKVIQGLKVAIIGYGSQGHAHALNLMDSGVDVRVGLREGDSDWKTAEEAGLKVTDIDTAAEEADVIMVLVPDEVQPKVYQEHIAAHLKAGNTLAFAHGFNIHYGYIVPPEDVNVIMCAPKGPGHIVRRQFTEGSGVPDLACVQQDATGNAWDIVLSYCWGVGGARSGIIKATFAEETEEDLFGEQAVLCGGLVELVKAGFETLTEAGYPPELAYFECYHEMKMIVDLMYESGIHFMNYSISNTAEYGEYYAGPKVINEQSREAMKEILKRIQDGSFAQEFVDDCNNGHKRLLEQREAINTHPIETTGARIRSMFSWIKKEDLEHHHHHH | 2450 | 996 | 3030 | 1050 | 717 | 683 | 2.11 | 647 | 533 | 1.90 | 104 | 157 | highest catalytic efficiencies | expected yield (printed: yeast efficiency) [5]: 0.35 g/g; Ki for DHIV, comparison of the variants [2, 6]: best (highest); rate (kcat or VMAX), comparison of the variants [3, 6]: best (highest)
4 | V65: Se1_NKR Gen6 variant with mutations G31A, V91I, Q330N as printed in Table 5; e.g. SEQ ID NO: 94 (protein, listed as Slackia exigua, SITE 1..350 Se1_NKR_v65 protein) MSVKTKEKEMAVTILYEQDVDPKVIQGLKVAIIGYGSQGHAHALNLMDSGVDVRVGLREGDSDWKTAEEAGLKVTDMDTAAEEADVIMVLIPDEVQPKVYQEHIAAHLKAGNTLAFAHGFNIHYGYIVPPEDVNVIMCAPKGPGHIVRRQFTEGSGVPDLACVQQDATGNAWDIVLSYCWGVGGARSGIIKATFAEETEEDLFGEQAVLCGGLVELVKAGFETLTEAGYPPELAYFECYHEMKMIVDLMYESGIHFMNYSISNTAEYGEYYAGPKVINEQSREAMKEILKRIQDGSFAQEFVDDCNNGHKRLLEQREAINTHPIETTGARIRSMFSWIKKEDLEHHHHHH | 2040 | 821 | 2370 | 801 | 602 | 673 | 1.77 | 538 | 510 | 1.58 | 103 | 118 | decreasing catalytic efficiencies | 
